According to patent CN106554420A (SHANGHAI UNION BIOPHARM CO LTD; LI JUN, dated 2017):
Values belong to the binder of their own block, whether it stands above or below them.

Legend:
[1] = biological target: T1, huPCSK9-His，重组人PCSK9胞外区His融合蛋白 (human, UniProt Q8NBP7 31-692, biotin-labelled in the ELISA and in the LDL-R blocking assay (sites not given)); assay: cell-based or functional assay
[2] = biological target: T1, huPCSK9-His，重组人PCSK9胞外区His融合蛋白; assay: ELISA, biotin-labelled PCSK9-His captured on neutravidin-coated plate
[3] = biological target: T2, cyPCSK9，猕猴PCSK9胞外区His融合蛋白 (猕猴 (macaque), UniProt A8T662 31-692, biotin-labelled in the ELISA (sites not given)); assay: as above
T2 construct: Bought (Novoprotein CA87); The printed entry includes the His tag

[4] = biological target: T1, huPCSK9-His，重组人PCSK9胞外区His融合蛋白; assay: BLI (ForteBio), chF3-9 captured on anti-human Fc (AHC) sensor, PCSK9 in solution, 1:1 global fit
[5] = biological target: T2, cyPCSK9，猕猴PCSK9胞外区His融合蛋白; assay: as above

T1 sequence (Q8NBP7 other isoform, or with tags, fused parts or gaps limits assumed): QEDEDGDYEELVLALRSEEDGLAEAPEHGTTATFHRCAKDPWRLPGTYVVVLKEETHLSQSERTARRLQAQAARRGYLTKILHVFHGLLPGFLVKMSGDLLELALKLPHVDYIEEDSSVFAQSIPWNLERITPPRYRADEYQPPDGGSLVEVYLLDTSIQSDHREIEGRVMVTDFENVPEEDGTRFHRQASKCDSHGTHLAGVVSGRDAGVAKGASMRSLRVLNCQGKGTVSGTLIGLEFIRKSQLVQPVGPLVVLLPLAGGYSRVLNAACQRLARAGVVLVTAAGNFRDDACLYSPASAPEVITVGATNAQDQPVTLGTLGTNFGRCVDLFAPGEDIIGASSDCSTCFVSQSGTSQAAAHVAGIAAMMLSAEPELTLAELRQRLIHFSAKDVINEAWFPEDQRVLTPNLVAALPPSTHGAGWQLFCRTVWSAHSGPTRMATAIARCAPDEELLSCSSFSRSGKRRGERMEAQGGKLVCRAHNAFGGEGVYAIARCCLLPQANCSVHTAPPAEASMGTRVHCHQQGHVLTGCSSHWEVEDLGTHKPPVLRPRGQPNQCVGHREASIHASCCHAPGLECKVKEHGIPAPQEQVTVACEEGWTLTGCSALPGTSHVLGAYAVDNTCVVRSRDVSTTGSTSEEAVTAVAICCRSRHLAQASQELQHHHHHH
T2 sequence (A8T662 other isoform, or with tags, fused parts or gaps limits assumed, form in doubt): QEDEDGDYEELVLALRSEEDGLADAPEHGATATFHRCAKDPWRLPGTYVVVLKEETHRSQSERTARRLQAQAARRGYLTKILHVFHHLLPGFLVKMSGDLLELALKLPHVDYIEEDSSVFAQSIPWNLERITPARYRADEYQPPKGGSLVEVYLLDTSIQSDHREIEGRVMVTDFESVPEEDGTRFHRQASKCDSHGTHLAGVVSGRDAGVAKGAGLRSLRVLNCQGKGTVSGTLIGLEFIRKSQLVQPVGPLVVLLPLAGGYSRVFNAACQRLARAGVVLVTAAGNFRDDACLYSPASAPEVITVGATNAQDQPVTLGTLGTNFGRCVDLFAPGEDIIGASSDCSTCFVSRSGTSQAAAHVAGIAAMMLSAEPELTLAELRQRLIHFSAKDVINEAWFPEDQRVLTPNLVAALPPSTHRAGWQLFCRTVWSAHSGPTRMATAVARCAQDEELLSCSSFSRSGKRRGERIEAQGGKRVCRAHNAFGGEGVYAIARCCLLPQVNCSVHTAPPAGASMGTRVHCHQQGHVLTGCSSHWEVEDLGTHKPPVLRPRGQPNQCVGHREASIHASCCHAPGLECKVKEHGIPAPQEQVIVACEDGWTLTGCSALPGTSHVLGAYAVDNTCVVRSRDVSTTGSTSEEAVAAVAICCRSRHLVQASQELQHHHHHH

- 有效活性浓度(EC50), antagonism of PCSK9 inhibition of LDL uptake by HepG2 cells [1]: 10 nM
- EC50 [2]: 0.68 nM
- EC50 [3]: 0.62 nM
B1: 鼠单抗mF3-9 (antibody, V domains shown)
VH: QVQLQQSGAELVRPGSSVKISCKASGYSFSSYWMNWVKQRPGQGLEWIGQIYPGDGDTNFNGKFKGKATLTADKSSSTAYMQLSSLTSEDSAVYFCGNYDYDGEIPYWGQGTTLTVSS
VL: DIFLTQSPAILSVSPGERVNFSCRASQTIGTSLHWYQQRTNGSPRLLIKYASESISGIPSRFSGSGSGTEFTLRINSVESEDIADYYCQQSSKWPLTFGQGTKVEIK
notes: Mouse hybridoma monoclonal antibody; also called 鼠单抗F3-9; 抗体F3-9

- Kd [4]: 0.42 nM
- Kd [5]: 1.27 nM
B2: 人-鼠嵌合型F3-9抗体(chF3-9) (antibody, IgG2, V domains shown)
VH: B1 VH
VL: B1 VL
notes: also called F3-9嵌合抗体; 嵌合PCSK9抗体F3-9
